Laboratory results taken from patent US20080312140A1 (published 2008).
Starred links: 1 amine or outer side, 2 acyl side, 3 side chain; linkers in the order of their positions; H or OH if unused. No end group written: not given here. N(2-Aminoethyl)Gly = O=C(CN(CCN[*:3])[*:1])[*:2]

B1: C2-2 (peptide)
peptide: RQGSFG-NH2
modifications: bridge (positions not given here) via N(2-Aminoethyl)Gly; also: backbone cyclised via N-(aminoethyl)Gly building unit and dicarboxylic acid bridge (m=3), structure in drawing only
B2: C2-3 (peptide)
peptide: RQGSFG-NH2
modifications: bridge (positions not given here) via N(2-Aminoethyl)Gly; also: backbone cyclised via N-(aminoethyl)Gly building unit and dicarboxylic acid bridge (m=4), structure in drawing only
B3: C2-1 (peptide)
peptide: RQGSFG-NH2
modifications: bridge (positions not given here) via N(2-Aminoethyl)Gly; also: backbone cyclised via N-(aminoethyl)Gly building unit and dicarboxylic acid bridge (m=2), structure in drawing only

Molecular target: HIV-1 envelope glycoprotein gp120 (HIV-1)
Assay: cell-based or functional assay

B1 and B2 are the same in “IC50 of infection inhibition (Cell Infection Inhibition Assay, CD4 expressing Hela P4 cells)” value: 81 µM for the first, 81 µM for the second.

For B3, the “IC50 of infection inhibition (Cell Infection Inhibition Assay, CD4 expressing Hela P4 cells)” value was 33 µM.
